Reference: the FLAb antibody collection (doi:10.7554/elife.23156)

B1: scFv; the commonest letter at each place (parent)
chain 1: EVKLDETGGGLVQPGRPMKLSCVASGFTFSDYWMNWVRQSPEKGLEWVAQIRNKPYNYETYYSDSVKGRFTISRDDSKSSVYLQMNNLRVEDMGIYYCTGSYYGMDYWGQGTSVTVS
chain 2: DVVMTQTPLSLPVSLGDQASISCRSSQSLVHSNGNTYLRWYLQKPGQSPKVLIYKVSNRFSGVPDRFSGSGSGTDFTLKISRVEAEDLGVYFCSQSTHVPWTFGGGTKLEIK

Columns and labels:
[1] = variants of: B1; assay: Kd (Tite-Seq); settings: with fluorescein; format: scFv 4-4-20, heavy + light
[2] = variants of: B1; assay: yeast surface expression (ratio to wild type); higher = more expressed; settings: format: scFv 4-4-20, heavy + light

Variant	Kd [1] [nM]	yeast surface expression [2]
chain 1 EVKLDETGGGLVQPGRPMKLSCVASGFTFSDYWMNWVRQSPEKGLEWVAQIRNKPYNYETYYSDSVKGRFTISRDDSKSSVYLQMNNLRVEDMGIYYCTGSYAGMDYWGQGTSVTVS chain 2 DVVMTQTPLSLPVSLGDQASISCRSSQSLVHSNGNTYLRWYLQKPGQSPKVLIYKVSNRFSGVPDRFSGSGSGTDFTLKISRVEAEDLGVYFCSQSTHVPWTFGGGTKLEIK [chain 1 Y103A]	15	0.932
chain 1 EVKLDETGGGLVQPGRPMKLSCVASGFTFSDYWMNWVRQSPEKGLEWVAQIRNKPYNYETYYSDSVKGRFTISRDDSKSSVYLQMNNLRVEDMGIYYCTGSYKGMDYWGQGTSVTVS chain 2 DVVMTQTPLSLPVSLGDQASISCRSSQSLVHSNGNTYLRWYLQKPGQSPKVLIYKVSNRFSGVPDRFSGSGSGTDFTLKISRVEAEDLGVYFCSQSTHVPWTFGGGTKLEIK [chain 1 Y103K]	3.01	1.04
chain 1 EVKLDETGGGLVQPGRPMKLSCVASGFTFSDWFMNWVRQSPEKGLEWVAQIRNKPYNYETYYSDSVKGRFTISRDDSKSSVYLQMNNLRVEDMGIYYCTGSYYGMDYWGQGTSVTVS chain 2 DVVMTQTPLSLPVSLGDQASISCRSSQSLVHSNGNTYLRWYLQKPGQSPKVLIYKVSNRFSGVPDRFSGSGSGTDFTLKISRVEAEDLGVYFCSQSTHVPWTFGGGTKLEIK [chain 1 Y32W W33F]	≥ 10000	0.941
chain 1 EVKLDETGGGLVQPGRPMKLSCVASGFTFSDYWMNWVRQSPEKGLEWVAQIRNKPYNYETYYSDSVKGRFTISRDDSKSSVYLQMNNLRVEDMGIYYCTCSYYGMDYTGQGTSVTVS chain 2 DVVMTQTPLSLPVSLGDQASISCRSSQSLVHSNGNTYLRWYLQKPGQSPKVLIYKVSNRFSGVPDRFSGSGSGTDFTLKISRVEAEDLGVYFCSQSTHVPWTFGGGTKLEIK [chain 1 G100C W108T]	0.846	0.565
chain 1 EVKLDETGGGLVQPGRPMKLSCVASGFTFSDYWMNWVRQSPEKGLEWVAQIRNKPYNYETYYSDSVKGRFTISRDDSKSSVYLQMNNLRVEDMGIYYCTGSYYGMLYCGQGTSVTVS chain 2 DVVMTQTPLSLPVSLGDQASISCRSSQSLVHSNGNTYLRWYLQKPGQSPKVLIYKVSNRFSGVPDRFSGSGSGTDFTLKISRVEAEDLGVYFCSQSTHVPWTFGGGTKLEIK [chain 1 D106L W108C]	≥ 10000	0.234
chain 1 EVKLDETGGGLVQPGRPMKLSCVASGFTFSDYWMNWVRQSPEKGLEWVAQIRNKPYNYETYYSDSVKGRFTISRDDSKSSVYLQMNNLRVEDMGIYYCTGSYYGMCYWGQGTSVTVS chain 2 DVVMTQTPLSLPVSLGDQASISCRSSQSLVHSNGNTYLRWYLQKPGQSPKVLIYKVSNRFSGVPDRFSGSGSGTDFTLKISRVEAEDLGVYFCSQSTHVPWTFGGGTKLEIK [chain 1 D106C]	2170	0.955
chain 1 EVKLDETGGGLVQPGRPMKLSCVASGFTFSDYWMNWVRQSPEKGLEWVAQIRNKPYNYETYYSDSVKGRFTISRDDSKSSVYLQMNNLRVEDMGIYYCTGYYYTMDYWGQGTSVTVS chain 2 DVVMTQTPLSLPVSLGDQASISCRSSQSLVHSNGNTYLRWYLQKPGQSPKVLIYKVSNRFSGVPDRFSGSGSGTDFTLKISRVEAEDLGVYFCSQSTHVPWTFGGGTKLEIK [chain 1 S101Y G104T]	≥ 10000	0.261
chain 1 EVKLDETGGGLVQPGRPMKLSCVASGFTFSDYWMNWVRQSPEKGLEWVAQIRNKPYNYETYYSDSVKGRFTISRDDSKSSVYLQMNNLRVEDMGIYYCTDSYYGMDVWGQGTSVTVS chain 2 DVVMTQTPLSLPVSLGDQASISCRSSQSLVHSNGNTYLRWYLQKPGQSPKVLIYKVSNRFSGVPDRFSGSGSGTDFTLKISRVEAEDLGVYFCSQSTHVPWTFGGGTKLEIK [chain 1 G100D Y107V]	≥ 10000	0.406
chain 1 EVKLDETGGGLVQPGRPMKLSCVASGFTFSDYWMNWVRQSPEKGLEWVAQIRNKPYNYETYYSDSVKGRFTISRDDSKSSVYLQMNNLRVEDMGIYYCTGDYYGMKYWGQGTSVTVS chain 2 DVVMTQTPLSLPVSLGDQASISCRSSQSLVHSNGNTYLRWYLQKPGQSPKVLIYKVSNRFSGVPDRFSGSGSGTDFTLKISRVEAEDLGVYFCSQSTHVPWTFGGGTKLEIK [chain 1 S101D D106K]	≥ 10000	0.435
chain 1 EVKLDETGGGLVQPGRPMKLSCVASGFTFSDYWMNWVRQSPEKGLEWVAQIRNKPYNYETYYSDSVKGRFTISRDDSKSSVYLQMNNLRVEDMGIYYCTVSPYGNDYWGQGTSVTVS chain 2 DVVMTQTPLSLPVSLGDQASISCRSSQSLVHSNGNTYLRWYLQKPGQSPKVLIYKVSNRFSGVPDRFSGSGSGTDFTLKISRVEAEDLGVYFCSQSTHVPWTFGGGTKLEIK [chain 1 G100V Y102P M105N]	≥ 10000	0.63
chain 1 EVKLDETGGGLVQPGRPMKLSCVASGFTFSDYWMNWVRQSPEKGLEWVAQIRNKPYNYETYYSDSVKGRFTISRDDSKSSVYLQMNNLRVEDMGIYYCTGTYYGMDYWGQGTSVTVS chain 2 DVVMTQTPLSLPVSLGDQASISCRSSQSLVHSNGNTYLRWYLQKPGQSPKVLIYKVSNRFSGVPDRFSGSGSGTDFTLKISRVEAEDLGVYFCSQSTHVPWTFGGGTKLEIK [chain 1 S101T]	≥ 10000	0.88
chain 1 EVKLDETGGGLVQPGRPMKLSCVASGFTFSDYWMNWVRQSPEKGLEWVAQIRNKPYNYETYYSDSVKGRFTISRDDSKSSVYLQMNNLRVEDMGIYYCTGSYFGMDVWGQGTSVTVS chain 2 DVVMTQTPLSLPVSLGDQASISCRSSQSLVHSNGNTYLRWYLQKPGQSPKVLIYKVSNRFSGVPDRFSGSGSGTDFTLKISRVEAEDLGVYFCSQSTHVPWTFGGGTKLEIK [chain 1 Y103F Y107V]	14.6	0.817
